± gives the uncertainty stated by the source.
Assay: self-splicing fitness, log relative to wild type (ln ratio); higher = more splicing; Tetrahymena group I intron in knt gene, E. coli kanamycin selection, DiMSum; sequences stand for … in CUCUCU…GGAGGGAAAAGUUAUCAGGCAUGCACCUGGUAGCUAGUCUUUAAACCAAUAGAUUGCAUCGGUUUAAAAGGCAAGACCGUCAAAUUGCGGGAAAGGGGUCAACAGCCGUUCAGUACCAAGUCUCAGGGGAAACUUUGAGAUGGCCUUGCAAAGGGUAUGGUAAUAAGCUGACGGACAUGGUCCUAACCACGCAGCCAAGUCCUAAGUCAACAGAUCUUCUGUUGAUAUGGAUGCAGUUCACAGACUAAAUGUCGGUCGGGGAAGAUGUAUUCUUCUCAUAAGAUAUAGUCGGACCUCUCCUUAAUGGGAGCUAGCGGAUGAAGUGAUGCAACACUGGAGCCGCUGGGAACUAAUUUGUAUGCGAAAGUAUAUUGAUUAGUUUUGGAGUACUCGUGGUCG
Method in brief: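 Library with all eight P1ex-region intron nucleotides randomised, intron inside the knt kanamycin-resistance gene on pET-22b(+), in E. coli BL21(DE3). Cells grew overnight at 37°C or 30°C on LB agar with or without 25 μg/mL kanamycin (plus 100 μg/mL carbenicillin, 50 μM IPTG, 0.2% rhamnose), in six replicate transformations. Pooled colonies were amplicon-sequenced on Illumina HiSeq 2500. DiMSum fitness is the error-weighted combination of wild-type-normalised replicate fold changes, kanamycin versus none.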

| Sequence | self-splicing fitness (ln) (30 °C) | self-splicing fitness (ln) (37 °C) |
| --- | --- | --- |
| UCCGAGCAAUAUUACGAUCU | -3.46 ± 0.35 | -2.61 ± 0.39 |
| UCCGAGCAAUAUUACGCGAA | -2.94 ± 0.4 | -1.84 ± 0.4 |
| UCCGAGCAAUAUUACGCGCG | -2.28 ± 0.15 | -3.28 ± 0.43 |
| UCCGAGCAAUAUUACGCUUA | -2.39 ± 0.41 | -2.47 ± 0.39 |
| UCCGAGCAAUAUUACGGAUU | -3.52 ± 0.29 | -2.45 ± 0.26 |
| UCCGAGCAAUAUUACGGUCA | -0.946 ± 0.067 | -0.671 ± 0.057 |
| UCCGAGCAAUAUUACGGUCG | -3.68 ± 0.47 | -2 ± 0.45 |
| UCCGAGCAAUAUUACGUAAU | -4.41 ± 0.28 | -1.88 ± 0.18 |
| UCCGAGCAAUAUUACGUAGG | -2.69 ± 0.16 | -2 ± 0.25 |
| UCCGAGCAAUAUUACGUAUG | -2.36 ± 0.17 | -2.67 ± 0.24 |
| UCCGAGCAAUAUUACGUCGG | -2.97 ± 0.44 | -1.86 ± 0.35 |
| UCCGAGCAAUAUUACGUCGU | -2.21 ± 0.16 | -1.53 ± 0.18 |
| UCCGAGCAAUAUUACGUGAU | -4.03 ± 0.4 | -1.91 ± 0.41 |
| UCCGAGCAAUAUUACGUGGC | -3.27 ± 0.24 | -2.52 ± 0.33 |
| UCCGAGCAAUAUUACGUUUU | -3.83 ± 0.25 | -0.687 ± 0.15 |
| UCCUAGCAAUAUUACGAAAA | -2.7 ± 0.43 | – |
| UCCUAGCAAUAUUACGAUUA | – | -3.41 ± 0.46 |
| UCCUAGCAAUAUUACGCACC | -2.95 ± 0.32 | -1.62 ± 0.25 |
| UCCUAGCAAUAUUACGCAGG | -1.8 ± 0.46 | -2.88 ± 0.37 |
| UCCUAGCAAUAUUACGCCUG | -2.87 ± 0.39 | -2.57 ± 0.46 |
| UCCUAGCAAUAUUACGCGAA | -2.24 ± 0.22 | -1.67 ± 0.17 |
| UCCUAGCAAUAUUACGCGCU | -2.24 ± 0.14 | -2.73 ± 0.23 |
| UCCUAGCAAUAUUACGCUAG | -3.47 ± 0.44 | – |
| UCCUAGCAAUAUUACGCUAU | -2.89 ± 0.21 | -2.43 ± 0.27 |
| UCCUAGCAAUAUUACGCUUU | – | -1.85 ± 0.29 |

| Sequence | self-splicing fitness (ln) (30 °C) | self-splicing fitness (ln) (37 °C) |
| --- | --- | --- |
| UCCUAGCAAUAUUACGGAAC | – | -2.69 ± 0.24 |
| UCCUAGCAAUAUUACGGACU | -3.59 ± 0.24 | -2.39 ± 0.22 |
| UCCUAGCAAUAUUACGGCAC | – | -2.14 ± 0.24 |
| UCCUAGCAAUAUUACGGCUG | -3.67 ± 0.39 | -1.37 ± 0.47 |
| UCCUAGCAAUAUUACGGGCA | -0.22 ± 0.085 | 0.2 ± 0.097 |
| UCCUAGCAAUAUUACGGGUC | -3.81 ± 0.22 | -2.71 ± 0.28 |
| UCCUAGCAAUAUUACGGUCC | -2.63 ± 0.24 | – |
| UCCUAGCAAUAUUACGUAUA | -3.53 ± 0.28 | -2.03 ± 0.16 |
| UCCUAGCAAUAUUACGUCGU | -2.3 ± 0.13 | -0.732 ± 0.13 |
| UCCUAGCAAUAUUACGUGUC | -3.06 ± 0.34 | -2.71 ± 0.38 |
| UCGAAGCAAUAUUACGACCG | -0.853 ± 0.12 | -0.898 ± 0.14 |
| UCGAAGCAAUAUUACGACGC | 0.247 ± 0.19 | -0.514 ± 0.2 |
| UCGAAGCAAUAUUACGACGU | -0.755 ± 0.1 | -0.205 ± 0.099 |
| UCGAAGCAAUAUUACGAGAA | -1.94 ± 0.41 | -1.23 ± 0.3 |
| UCGAAGCAAUAUUACGAGUA | -2.08 ± 0.14 | -0.398 ± 0.12 |
| UCGAAGCAAUAUUACGAGUG | -1.56 ± 0.1 | -1.52 ± 0.15 |
| UCGAAGCAAUAUUACGAUCG | -1.25 ± 0.099 | -0.609 ± 0.12 |
| UCGAAGCAAUAUUACGCAGU | -0.00368 ± 0.23 | -0.973 ± 0.47 |
| UCGAAGCAAUAUUACGCCAU | -3.42 ± 0.32 | -2.52 ± 0.48 |
| UCGAAGCAAUAUUACGCCCG | -1.33 ± 0.16 | -0.864 ± 0.17 |
| UCGAAGCAAUAUUACGCGUA | -1.46 ± 0.15 | -1.19 ± 0.13 |
| UCGAAGCAAUAUUACGCUCU | – | -1.36 ± 0.34 |
| UCGAAGCAAUAUUACGCUUA | -2.28 ± 0.28 | -3.61 ± 0.37 |
| UCGAAGCAAUAUUACGCUUU | -4.08 ± 0.3 | -2.94 ± 0.35 |
| UCGAAGCAAUAUUACGGACA | -0.385 ± 0.15 | -0.235 ± 0.23 |

Reference: the supplement of paper PMC7877785
